Test results as given in patent publication US10501734B2, “Compositions and methods of use thereof for making polypeptides with many instances of nonstandard amino acids” (Yale University, priority 2014, dated 2019).
Where a chain is given by its changes, count along the chain named. Names may count otherwise.

B1: pAcFRS.2.t1: pAcFRS variant L65V, A167D, R257G, SEQ ID NO: 8 (protein)
chain: MDEFEMIKRNTSEIISEEELREVLKKDEKSALIGFEPSGKIHLGHYLQIKKMIDLQNAGFDIIIVLADLHAYLNQKGELDEIRKIGDYNKKVFEAMGLKAKYVYGSEFQLDKDYTLNVYRLALKTTLKRARRSMELIAREDENPKVAEVIYPIMQVNGCHYRGVDVDVGGMEQRKIHMLARELLPKKVVCIHNPVLTGLDGEGKMSSSKGNFIAVDDSPEEIRAKIKKAYCPAGVVEGNPIMEIAKYFLEYPLTIKGPEKFGGDLTVNSYEELESLFKNKELHPMRLKNAVAEELIKILEPIRKRL
B2: pAcFRS: progenitor M. jannaschii based p-acetyl-L-phenylalanine AARS, SEQ ID NO:1 (Young, et al., 2010) (protein, listed as Methanocaldococcus jannaschii)
chain: B1 chain with V65L, D167A, G257R
B3: pAcFRS.1.t1: pAcFRS variant A167D, R257G, SEQ ID NO: 5 (protein)
chain: B1 chain with V65L
B4: pAzFRS.2.t1: pAcFRS variant E107T, F108Y, Q109M, R257G, SEQ ID NO: 14 (protein)
chain: B1 chain with V65L, E107T, F108Y, Q109M, D167A
B5: pAzFRS.1.t1: pAcFRS variant D158V, I159M, L162D, A167Y, R257G, SEQ ID NO: 11 (protein)
chain: MDEFEMIKRNTSEIISEEELREVLKKDEKSALIGFEPSGKIHLGHYLQIKKMIDLQNAGFDIIILLADLHAYLNQKGELDEIRKIGDYNKKVFEAMGLKAKYVYGSEFQLDKDYTLNVYRLALKTTLKRARRSMELIAREDENPKVAEVIYPIMQVNVMHYDGVDVYVGGMEQRKIHMLARELLPKKVVCIHNPVLTGLDGEGKMSSSKGNFIAVDDSPEEIRAKIKKAYCPAGVVEGNPIMMEIAKYFLEYPLTIKGPEKFGGDLTVNSYEELESLFKNKELHPMRLKNAVAEELIKILEPIRKRL

system: GFP(3TAG); assay: not given; type: cell-based, E. coli; conditions: GFP(3TAG) expression; chromosomally integrated AARS

Row | Molecule | selectivity toward pAcF over pAzF
1 | B1 | increase in selectivity

same assay, conditions: RF1 deficient GRO; chromosomal versus plasmid OTS

Row | Molecule | decrease in the yield of GFP(3TAG) by genomic integration of the OTS
2 | B2 | ~20 fold

same assay, conditions: chromosomally integrated AARS; pAcF

Row | Molecule | higher GFP(3TAG) production compared with the progenitor enzyme
3 | B3 | ~17 fold

same assay, conditions: chromosomally integrated AARS; pAzF

Row | Molecule | higher GFP(3TAG) production compared with the progenitor enzyme
4 | B4 | ~25 fold
5 | B5 | ~5.5 fold

system: not listed separately; assay: ATP-PPi exchange assay (amino acid activation); type: biochemical; conditions: in vitro biochemical analysis
Experimental: A 25 μl ATP-PPi exchange reaction contained the following components: 100 mM HEPES-KOH (pH 7.5), 30 mM KCl, 10 mM MgCl2, 2 mM DTT, 2 mM KF, 2 mM NaPPi, 5 mM ATP, […], 2 μCi/μl of […] (PerkinElmer) and varied concentrations of amino acids (0.25, 0.5, 1.25, 2.5, 5, 10, and 20 mM, respectively). The reactions were incubated at 37° C. Time points were taken at 2 minutes, 5 minutes and 10 minutes by plotting 1 μl aliquots from the reaction immediately to the PEI-cellulose plates (Merck). For each reaction, 1 μl of blank reaction mixture containing no enzymes was set as background. The reaction mixtures were separated on the plates in 1 M urea and 1 M monopotassium phosphate. The plates were then scanned in a Molecular Dynamics Storm 860 phosphorimager (Amersham Biosciences). The ratio of ATP to PPi was determined to monitor reaction progress. The kinetic constants were derived from plotting initial velocity of a series of reactions that contained varied concentrations of amino acids. The data were analyzed by GraFit 5.0 (Erithacus Software).

Row | Molecule | decrease in aminoacylation for pAzF compared with pAcF
6 | B1 | 5 fold

same assay, conditions: nsAA pAcF

Row | Molecule | Km | kcat
7 | B3 | 1680 ± 780 µM | 6.12 ± 0.74 ×10^−2 s^−1
8 | B1 | 2810 ± 890 µM | 5.43 ± 0.54 ×10^−2 s^−1
9 | B2 | 7340 ± 1620 µM | 5.01 ± 0.48 ×10^−2 s^−1

same assay, conditions: nsAA pAcF; relative to progenitor pAcFRS

Row | Molecule | Fold change
10 | B3 | 5.34
11 | B1 | 2.84
12 | B2 | 1

same assay, conditions: nsAA pAzF

Row | Molecule | Km | kcat
13 | B3 | 1490 ± 110 µM | 3.65 ± 0.62 ×10^−2 s^−1
14 | B1 | 6590 ± 1700 µM | 4.22 ± 0.45 ×10^−2 s^−1
15 | B4 | 1400 ± 350 µM | 4.14 ± 0.23 ×10^−2 s^−1
16 | B2 | 3040 ± 270 µM | 4.45 ± 0.13 ×10^−2 s^−1
17 | B5 | 990 ± 130 µM | 4.79 ± 0.67 ×10^−2 s^−1

same assay, conditions: nsAA pAzF; relative to progenitor pAcFRS

Row | Molecule | Fold change
18 | B3 | 1.68
19 | B1 | 0.44
20 | B4 | 2.02
21 | B2 | 1
22 | B5 | 3.32

system: tRNA; assay: Aminoacylation assay (tRNA charging); type: biochemical; conditions: in vitro biochemical analysis
Experimental: Template plasmid containing tRNA gene was purified with the plasmid maxi kit (Qiagen), and 100 μg of plasmid was digested with BstNI (New England Biolabs). The BstNI digested template DNA was purified by phenol chloroform extraction, followed by ethanol precipitation and resolved in double distilled water. A His-tagged T7 RNA polymerase was purified over column of Ni-NTA resin according to manufacturer's instructions (Qiagen). The transcription reaction [40 mM Tris (pH 8); 4 mM each of UTP, CTP, GTP, and ATP at pH 7.0; 22 mM MgCl2; 2 mM spermidine; 10 mM DTT; 6 μg pyrophosphatase (Roche Applied Science); 60 μg/mL BstNI digested DNA template, approximately 0.2 mg/ml T7 RNA polymerase] was performed in 10 ml reaction volumes for overnight at 37° C. The tRNA was purified on 12% denaturing polyacrylamide gel containing 8 M urea and TBE buffer (90 mM Tris, 90 mM boric acid, 2 mM EDTA). UV shadowing illuminates the pure tRNA band, which is excised and extracted three times with 1M sodium acetate pH 5.3 at 4° C. The tRNA extractions were then ethanol precipitated, dissolved in RNase-free distilled water, pooled, and finally desalted using a Biospin 30 column (BioRad). The ratio of aminoacylated tRNA to total tRNA was determined to monitor reaction progress.
The tRNA was refolded by heating to 100° C. for 5 min and slow cooling to room temperature. At 65° C., MgC12, was added to a final concentration of 10 mM to aid folding. A His-tagged CCA adding enzyme was purified over column of Ni-NTA resin according to manufacturer's instructions (Qiagen). 16 μM folded tRNA in 50 mM Tris (pH 8.0), 20 mM MgCl2, 5 mM DTT and 50 μM NaPPi was incubated at room temperature for 1 hour with approximately 0.2 mg/ml CCA-adding enzyme and 1.6 μCi/μl of [α-32P]-labeled ATP (PerkinElmer). The sample was phenol/chloroform extracted and then passed over a Bio-spin 30 column (Bio-Rad) to remove excess ATP.
A 20 μl aminoacylation reaction contained the following components: 50 mM HEPES-KOH (pH 7.2), 25 mM KCl, 10 mM MgCl2, 5 mM DTT, 10 mM ATP, 25 μg/ml pyrophosphatase (Roche Applied Science), 2 mM amino acids. All plateau tRNA aminoacylation levels were determined at 37° C. according to the reactions conditions described above with 500 nM enzyme, 5 μM unlabeled tRNA plus 100 nM 32P-labeled tRNA. Time points were taken at 5 minutes, 20 minutes and 60 minutes by removing 2 μl aliquots from the reaction and immediately quenching the reaction into an ice-cold 3 μl quench solution [0.66 μg/μl nuclease P1 (Sigma) in 100 mM sodium citrate (pH 5.0)]. For each reaction, 2 μl of blank reaction mixture containing no enzymes was added to the quench solution as the start time point. The nuclease P1 mixture was then incubated at room temperature for 30 min and 1 μl aliquots were spotted on PEI-cellulose plates (Merck) and developed in running buffer containing 5% acetic acid and 100 mM ammonium acetate. Radioactive spots for AMP and AA-AMP (representing free tRNA and aminoacyl-tRNA, respectively) were separated and then visualized and quantified by phosphor imaging by a Molecular Dynamics Storm 860 phosphorimager (Amersham Biosciences). The ratio of aminoacylated tRNA to total tRNA was determined to monitor reaction progress.

Row | Molecule | decrease in tRNA charging for pAzF compared with pAcF
23 | B1 | 2.8 fold

same assay, conditions: nsAA pAcF

Row | Molecule | Km | kcat
24 | B3 | 16 ± 4 µM | 1.12 ± 0.14 ×10^−3 s^−1
25 | B1 | 18 ± 2 µM | 0.54 ± 0.15 ×10^−3 s^−1
26 | B2 | 34 ± 6 µM | 0.25 ± 0.04 ×10^−3 s^−1

same assay, conditions: nsAA pAcF; relative to progenitor pAcFRS

Row | Molecule | Fold change
27 | B3 | 9.58
28 | B1 | 4.10
29 | B2 | 1

same assay, conditions: nsAA pAzF

Row | Molecule | Km | kcat
30 | B3 | 16 ± 1 µM | 0.63 ± 0.12 ×10^−3 s^−1
31 | B1 | 24 ± 7 µM | 0.22 ± 0.05 ×10^−3 s^−1
32 | B4 | 14 ± 3 µM | 0.71 ± 0.13 ×10^−3 s^−1
33 | B2 | 34 ± 7 µM | 0.23 ± 0.03 ×10^−3 s^−1
34 | B5 | 24 ± 3 µM | 0.49 ± 0.17 ×10^−3 s^−1

same assay, conditions: nsAA pAzF; relative to progenitor pAcFRS

Row | Molecule | Fold change
35 | B3 | 6.33
36 | B1 | 1.47
37 | B4 | 8.17
38 | B2 | 1
39 | B5 | 3.29
